Measurements taken from the DeepSol protein solubility set.

Experiment: soluble on expression in E. coli; label from the status in PepcDB or PDB records

Row | Sequence | soluble on expression in E. coli
1 | AIAEALWTNKIEDPLSLMSFTVPPLRLLSAAMWQVTERRQVKHYGMLEEFVSLVTETIPELLNQHQRAQLILGLRARHLLELCRGKHQGSLKEIQPHLKRLCRPRVNKEFADEDMEESEACFLDLVRTLISNPKEKEHYFQNIFPEEYGPKFDKNLHALMEDFLLKLDRMVSVPDLSETVSWLRTCPSLLDDCIDSVSVPKDMKSLLEHHTAKGNLQDSEGNNCTFSSQSLPPLVQVVISSDHTESGEPSDLNGQDNDDEQASKTSSDGWTIKKIKLKTETEEEDNDQNWPITEAKSTGTRDGYDDGCLGEEPNQTQS | soluble
2 | AIAGELTDALLGKGALKTRFGSLLGQGDWGGVRVSQVEVRWVIFCLLHWLHVNLPVTEYLALDVLFPLAIVQKHSIL | soluble
3 | AIAKETEQVSEAPHGLEGAWLDLTNRVRVSGDTVEACSAFSIGPPRCRWLLQATDRGVNCAALDHYVPHICGTHTETVYHIAHHRYIKRAVCEIPFFRFHKARIQVCTAKIACTEQVLPSADTDYPCLEPNDLIVGPSALNRAPRYTRAQDSTIEALILIVVGPDGTSDWRDGKLDDRPPYLTPAAIESLATRYPNMRHLLTNLPSVDRRRDGGLVRSHRAFFATDFAGDGTPSESPQKTITELLRVPPDWQLYDDAEGVVCISLAPIEGLDAIPSSVYFKSH | soluble
4 | AIATSDITSGFAAVATALEHEGQLRERLRLQRDELDVAVRSLETQLSRLHYEVDWSDAVAGARQQLRTIGSGFLELQSLVPEGMFYKYNDLWRQCSIHIVQSCLLIRFFETVHAPGPQFSDNLDQSQANDSVETCTAALVTKDEVLEMLDGEKAPTQPALRLDLEEYLLGLCGGIQELARLAANRVVLGDYATPRKLAFFCNQVYAGFRLLNFRNDSLRRSYDALKYAIQRLDSILYDLRIRKLS | soluble
5 | AITGATGHLGQQIVAAMRPLVATTELYLGVHTLSKAQVYQQQGLHIAAIDYQQPEQLRAFFQDSDVLIYIPSKSHDSYSRVQEFENVLAAVQQANVHHFLVMGFIADQVNNPFALSAFYGYVPRRLAGSDINYTIVRNALYADPLVPYLPELIERHNVVYPMADQALSFISQADSAAAFAKVATTPDLLQRGRI | not soluble
6 | AIYVDLPNRQLKVKVADRRVISTTDAERQAVTPPGLQEAINDLVKKYTLARAFVRPSGTEDIVRVYAEANSQESADRLAYEVSLLVFQLAGGIGERPQP | soluble
7 | AKAAGSSIGQQDTLVMLLNFKENPNDQPITSEEAHALVFGEVNDFYQENSYGKTWLSGQVAGWYTLPVSDQVCDYPSVQAEADKMARADGIVLEDYQR | not soluble
8 | AKVNIKPLEDKILVQANEAETTTASGLVIPDTAKEKPQEGTVVAVGPGRWDEDGEKRIPLDVAEGDTVIYSKYGGTEIKYNGEEYLILSARDVLAVVSK | soluble
9 | ALSRYLLTESPAVCVLSGERGVGTTTLLNRILNKVKNATPIYINCPYDGYSALLPELAKQLGLDEESSERDILQYLRNSDTCYLLAFDSAQRLVKPKVNGLADLMKLTNLLRRARKSHRVVLAIEKSCWRFIDRARGERLLFDLVTFMP | not soluble
10 | AMAEAYQIQSNGDPQSKPLLELYVKASGIDARRIGADLFCQEFWMELYALYEIGVARVEVKTVNVNSEAFKKNFLGAQPPIMIEEEKELTYTDNREIEGRIFHLAKEFNVPLFEKDPSAEKRIENLYRNFKLFLRAKVEFDKGKKEPSRVEDLPAQIKVHYNRVCEQLSNIDQLLSERKSRYLLGNSMTEYDCELMPRLHHIRIIGLSLLGFDIPHNFTHLWAYILTAYRTAAFIESCPADQDIIHHYKEQMNLFTNQRETLQSPTKTHTIPEKVLSDIRVKGLAPDVNVH | soluble
11 | AMANIAQRPKRGPHDAAIQNILTELQNHAAAWPFLQPVNKEEVPDYYDFIKEPMDLSTMEIKLESNKYQKMEDFIYDARLVFNNCRMYNGENTSYYKYANRLEKFFNNKVKEIPEYSHLID | soluble
12 | AMSYTPGQPVTAVVQRVEIHKLRQGENLILGFSIGGGIDQDPSQNPFSEDKTDKGIYVTRVSEGGPAEIAGLQIGDKIMQVNGWDMTMVTHDQARKRLTKRSEEVVRLLVTRQ | soluble
13 | ANNLPDTQSSGPAHSKETPALTAVETGATNPLVPSDTVQTRHVIQKRTRSESTVESFFARGACVAIIEVDNDAPTKRASKLFSVWKITYKDTVQLRRKLEFFTYSRFDMEFTFVVTSNYTDANNGHALNQVYQIMYIPPGAPIPGKWNDYTWQTSSNPSVFYTYGAPPARISVPYVGIANAYSHFYDGFAKVPLAGQASTEGDSLYGAASLNDFGSLAVRVVNDHNPTKLTSKIRVYMKPKHVRVWCPRPPRAVPYYGPGVDYKDGLAPLPGKGLTTY | soluble
14 | ANQPDWADEAANGAHQDAWKSLKARVENVYYMVKATYKNDPVWGNDFTCVGVMANDVNEDEKSIQAEFLFMNNADTNMQFATEKVTAVKMYGYNRENAFRYETEDGQVFTDVIAYSDDNCDVIYVPGTDGNEEGYELWTTDYDNIPANCLNKFNEYAVGRETRDVFTSACLE | soluble
15 | AQEVLRRTPLYDFHLAHGGKMVAFAGWSLPVQYRDSHTDSHLHTRQHCSLFDVSHMLQTKILGSDRVKLMESLVVGDIAELRPNQGTLSLFTNEAGGILDDLIVTNTSEGHLYVVSNAGCWEKDLALMQDKVRELQNQGRDVGLEVLDNALLALQGPTAAQVLQAGVADDLRKLPFMTSAVMEVFGVSGCRVTRCGYTGEDGVEISVPVAGAVHLATAILKNPEVKLAGLAARDSLRLEAGLCLYGNDIDEHTTPVEGSLSWTLGKRRRAAMDFPGAKVIVPQLKGRVQRRRVGLMCEGAPMRAHSPILNMEGTKIGTVTSGCPSPSLKKNVAMGYVPCEYSRPGTMLLVEVRRKQQMAVVSKMPFVPTNYYTLK | soluble
16 | ARIMKAIFVLNAAPKDNTWYAGGKLGWSQYHDTGFYGNGFQNNNGPTRNDQLGAGAFGGYQVNPYLGFEMGYDWLGRMAYKGSVDNGAFKAQGVQLTAKLGYPITDDLDIYTRLGGMVWRADSKGNYASTGVSRSEHDTGVSPVFAGGVEWAVTRDIATRLEYQWVNNIGDAGTVGTRPDNGMLSLGVSYRFGQEDAAPVVAPAPAPAPEHHHHHH | soluble
17 | ASEKVEMNLVTSQGVGQSIGSVTITETDKGLEFSPDLKALPPGEHGFHIHAKGSCQPATKDGKASAAESAGGHLDPQNTGKHEGPEGAGHLGDLPALVVNNDGKATDAVIAPRLKSLDEIKDKALMVHVGGDNMSDQPKPLGGGGERYACGVIK | soluble
18 | ASFPFGDFTADTKGTSDIAYSFRNDISGTGGLIKKGGSQLQLHGNNTYTGKTIIEGGSLVLYGNNKSDMRVETKGALIYNGAASGGSLNSDGIVYLADTDQSGANETVHIKGSLQLDGKGTLYTRLGKLLKVDGTAIIGGKLYMSARGKGAGYLNSTGRRVPFLSAAKIGQDYSFFTNIETDGGLLASLDSVEKTAGSEGDTLSYYVRRGNAARTASAAAHSAPAGLKHAVEQGGSNLENLMVELDASESSATPETVETAAADRTDMPGIRPYGATFRAAAAVQHANAADGVRIFNS | not soluble
19 | ASTTTPTLRLNWLQPPFNNQKVRQALLHAVSQRDYMDAQVGDPKAYRVCWAMFGCDSPLASTAGVVSQDDEADLNAAKALLKESGYKNEKAVVLHATDYPPTSAIAPFTAQILRSIGMKAEVQSMDWATFLTRRGKQDPVEKGGWSVAYGSWNTLDLMSPIANLNLDGRGKEGYAGWTESAEMESLRTQYAQATEPASRQQIAAKIQQLAYDQVFYIPLGTY | not soluble
20 | ASWSHPQFEKIEGRDTWRYAFEEAMTDVQGVYAQKFKEEIEANSDHEIQLFPYGTLGESADIMEQTQDGILQFVDQSPGFTGSLIPEAQVFFVPYLLPTDQDHLARFFKESKAINDMFKPLYADQGLELLNMFPEGEVAMTTKTPVTTCSDLDEVKFRVMTNPLLVESYKAFGATPTPLPWGEVYGGLQTNVIQGQENPTFFLYSTKIYEVTDYITYAGHNNFTTAVMANKDFYDGLSAEDQQLVQNAALAAYDHTVVYQQQAADTELAKIMEAKPEMQVTVLTDEQRSCFKEAAAEVEAKFIEMTGDSGAAILKQMKADLAATAN | soluble
21 | ATDTLANEDCFRHESLVPNLDYERFRGSWIIAAGTSEALTQYKCWIDRFSYDDALVSKYTDSQGKNRTTIRGRTKFEGNKFTIDYNDKGKAFSAPYSVLATDYENYAIVEGCPAAANGHVIYVQLRMTLRRFHPKLGDKEMLQHYTLDQVNQNKKAIEEDLKHFNLKYEDLHSTCH | soluble
22 | ATLKQLDGIHVTILHKEEGAGLGFSLAGGADLENKVITVHRVFPNGLASQEGTIQKGNEVLSINGKSLKGTTHHDALAILRQAREPRQAVIVTRKLTPEAMPDLNS | soluble
23 | AVELAEEVTNLKQVRTMLEAIIQSSDEAISVVDENGIGLLINKAYTKMTGLSEKEVIGKPANTDISEGESMHLKVLETRRPVRGVRMKVGPNEKEVIVNVAPVIVDGILKGSVGVIHDVS | not soluble
24 | AVLLLGEVTNGALNRDATAKAVAAVKALGDVTVLCAGASAKAAAEEAAKIAGVAKVLVAEDALYGHRLAEPTAALIVGLAGDYSHIAAPATTDAKNVMPRVAALLDVMVLSDVSAILDADTFERPIYAGNAIQVVKSKDAKKVFTIRTASFDAAGEGGTAPVTETAAAADPGLSSWVADEVAESDRPELTSARRVVSGGRGLGSKESFAIIEELADKLGAAVGASRAAVDSGYAPNDWQVGQTGKVVAPELYVAVGISGAIQHLAGMKDSKVIVAINKDEEAPIFQIADYGLVGDLFSVVPELTGKL | soluble
25 | AVPKIRIAVPSKGRISEPAIRLLENAGVGLKDTVNRKLFSKTQHPQIEVMFSRAADIPEFVADGAADLGITGYDLIVERGSDVEILEDLKYGRASLVLAAPEDSTIRGPEDIPRGAVIATEFPGITENYLREHGIDAEVVELTGSTEIAPFIGVADLITDLSSTGTTLRMNHLRVIDTILESSVKLIANRESYATKSGIIEELRTGIRGVIDAEGKRLVMLNIDRKNLDRVRALMPGMTGPTVSEVLSDNGVVAVHAVVDEKEVFNLINRLKAVGARDILVVPIERIIP | soluble
26 | AVVATDAYVKRTNIFYHASSSRLLAVGHPYYSIKKVNKTVVPKVSGYQYRVFKVVLPDPNKFALPDSSLFDPTTQRLVWACTGLEVGRGQPLGVGVSGHPLLNKYDDVENSGGYGGNPGQDNRVNVGMDYKQTQLCMVGCAPPLGEHWGKGTQSSNTSVQNGDCPPLELITSVIQDGDMVDTGFGAMNFADLQTNKSDVPLDICGTVCKYPDYLQMAADPYGDRLFFYLRKEQMFARHFFNRAGTVGEPVPDDLLVKGGNNRSSVASSIYVHTPSGSLVSSEAQLFNKPYWLQKAQGHNNGICWGNHLSVTVVDTTRSTNMTLCASVSKSATYTNSDYKEYMRHVEEFDLQFIFQLCSITLSAEVMAYIHTMNPSVLEDWNGGSGGKQDPYKDMSFWEVNLKEKFSSELDQFPLGRKFLLQSGY | soluble
27 | AYDIISDIHGCYDEMTALIQKLGYTIKNGVPVHEEGRVLVFAGDLTDRGPKSIEVIRFVAGAYEKGAVRYVPGNHCNKLYRYLKGNPVKVMHGLETTAAELEELSKDEKKSVSEQFMKLYETAPLYDILHNGELVVAHAGIRADDIGKYTRRVKDFVLYGDVTGETYPDGRPIRRDWAAAYNGKAWVVYGHTPVKEPRKVNRTINIDTGCVFGNQLTGFRFPEIETVSVPSSLPYDESRFRP | not soluble
28 | AYMYRSAFSVGLETRVTVPNVPIRFTKIFYNQQNHYDGSTGKFYCNIPGLYYFSYHITVYMKDVKVSLFKKDKAVLFTYDQYQEKNVDQASGSVLLHLEVGDQVWLQVYGDGDHNGLYADNVNDSTFTGFLLYHDTN | soluble
